In paper PMC9101108, “Shifting CCR7 towards Its Monomeric Form Augments CCL19 Binding and Uptake” (Cells, 2022):

Tests used:
Conditions in all cases: one partner purified
[1] = biological target: T1, human CCR7 L325S fused to YPet (human, UniProt P32248 25-378, L325S); assay: flow cytometry on cells; HeLa cells transiently expressing YPet-tagged CCR7 variants incubated at 4 °C for indicated times with 25 nM CCL19-S6^649P1, washed, MFI (chemokine binding)
T1 construct: chemokine receptor CCR7, human (hCCR7), point mutant L325S; also called hCCR7-YPet L325S; source: HeLa, transiently transfected (pcDNA3 hCCR7-YPet L325S), on cells; not shown: YPet, C-terminal, kept
T1 sequence (looked up): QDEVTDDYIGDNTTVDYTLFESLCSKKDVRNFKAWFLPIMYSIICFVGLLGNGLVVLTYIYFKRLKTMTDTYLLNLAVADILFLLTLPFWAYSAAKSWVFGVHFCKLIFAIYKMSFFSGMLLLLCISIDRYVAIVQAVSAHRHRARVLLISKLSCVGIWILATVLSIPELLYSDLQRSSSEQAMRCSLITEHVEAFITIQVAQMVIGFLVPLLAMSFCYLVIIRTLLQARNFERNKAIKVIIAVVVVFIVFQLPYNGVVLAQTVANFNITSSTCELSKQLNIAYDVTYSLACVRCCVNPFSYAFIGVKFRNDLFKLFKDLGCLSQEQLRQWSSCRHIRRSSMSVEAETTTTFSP

[2] = biological target: T2, human CCR7 A315G fused to YPet (human, UniProt P32248 25-378, A315G); assay: as above
T2 construct: chemokine receptor CCR7, human (hCCR7), point mutant A315G; also called hCCR7-YPet A315G; source: HeLa, transiently transfected (pcDNA3 hCCR7-YPet A315G), on cells; not shown: YPet, C-terminal, kept
T2 sequence (looked up): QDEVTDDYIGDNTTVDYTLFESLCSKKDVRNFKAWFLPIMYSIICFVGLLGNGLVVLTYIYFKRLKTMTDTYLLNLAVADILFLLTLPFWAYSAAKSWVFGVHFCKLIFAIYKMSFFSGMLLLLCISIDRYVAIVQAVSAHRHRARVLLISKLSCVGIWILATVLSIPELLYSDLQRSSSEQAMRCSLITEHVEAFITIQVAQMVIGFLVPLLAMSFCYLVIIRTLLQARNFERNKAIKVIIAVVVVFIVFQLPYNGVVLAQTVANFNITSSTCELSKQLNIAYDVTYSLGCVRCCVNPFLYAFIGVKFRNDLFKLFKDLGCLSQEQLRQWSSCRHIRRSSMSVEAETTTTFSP

[3] = biological target: T1, human CCR7 L325S fused to YPet; assay: flow cytometry on cells; competition: HeLa cells transiently expressing YPet-tagged CCR7 variants, 37 °C, 30 min, 25 nM CCL19-S6^649P1 with graded concentrations of native unlabelled hCCL19; MFI (binding and uptake)
[4] = biological target: T2, human CCR7 A315G fused to YPet; assay: as above
[5] = biological target: T3, human CCR7 wild-type fused to YPet (hCCR7-YPet) (human, UniProt P32248 25-378); assay: as above
T3 construct: chemokine receptor CCR7, human (hCCR7); also called CCR7 WT; wild-type CCR7; source: HeLa, transiently transfected (pcDNA3 hCCR7-YPet), on cells; not shown: YPet, C-terminal, kept
T3 sequence (looked up): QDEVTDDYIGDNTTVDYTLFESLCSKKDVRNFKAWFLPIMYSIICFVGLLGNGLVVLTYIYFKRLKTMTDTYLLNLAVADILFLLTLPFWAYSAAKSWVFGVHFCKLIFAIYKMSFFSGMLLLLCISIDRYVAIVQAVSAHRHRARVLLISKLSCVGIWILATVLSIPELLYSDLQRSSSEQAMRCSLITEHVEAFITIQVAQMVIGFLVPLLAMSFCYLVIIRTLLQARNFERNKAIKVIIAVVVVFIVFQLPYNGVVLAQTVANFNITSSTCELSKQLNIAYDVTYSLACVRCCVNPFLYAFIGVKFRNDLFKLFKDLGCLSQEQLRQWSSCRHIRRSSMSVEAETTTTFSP

[6] = biological target: T4, human CCR7 SNP V317I fused to YPet (human, UniProt P32248 25-378, V317I); assay: as above
T4 construct: chemokine receptor CCR7, human (hCCR7), naturally occurring SNP V317I; also called CCR7 V317I; hCCR7-YPet V317I; source: HeLa, transiently transfected (pcDNA3 hCCR7-YPet V317I), on cells; not shown: YPet, C-terminal, kept
T4 sequence (looked up): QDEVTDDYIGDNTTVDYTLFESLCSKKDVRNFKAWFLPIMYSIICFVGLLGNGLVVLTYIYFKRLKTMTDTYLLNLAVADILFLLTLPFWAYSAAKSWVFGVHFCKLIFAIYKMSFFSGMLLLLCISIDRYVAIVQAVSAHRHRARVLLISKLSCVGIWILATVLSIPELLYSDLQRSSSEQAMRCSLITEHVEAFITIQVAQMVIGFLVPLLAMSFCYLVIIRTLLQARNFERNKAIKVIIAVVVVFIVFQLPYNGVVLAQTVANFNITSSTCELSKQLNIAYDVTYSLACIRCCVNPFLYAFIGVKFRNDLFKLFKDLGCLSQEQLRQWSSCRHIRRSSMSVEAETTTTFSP

B1: human CCL19-S6 site-specifically labelled with Dy649P1 (hCCL19-S6^649P1) (ligand, UniProt Q99731 22-98, looked up)
chain: GTNDAEDCCLSVTQKPIPGYIVRNFHYLLIKDGCRVPAVVFTTLRGRQLCAPPDQPWVERIIQRLQRTSAKMKRRSS
modifications: Dy649P1 covalently and site-specifically attached (CoA-Dy649P1, SFP synthase)
B1 was tested, and the “fold fluorescence of bound CCL19-S6^649P1 against wild-type CCR7” value [1] was about 2 fold and the “fold fluorescence of bound CCL19-S6^649P1 against wild-type CCR7” value [2] was about 2 fold.

B2: native human CCL19 (hCCL19), unlabelled (ligand, UniProt Q99731 22-98, looked up)
chain: GTNDAEDCCLSVTQKPIPGYIVRNFHYLLIKDGCRVPAVVFTTLRGRQLCAPPDQPWVERIIQRLQRTSAKMKRRSS
A Kd [3] of about 7 nM, a Kd [4] of about 10 nM and a Kd [5] of about 29 nM were found for B2 in this work. It also gave a Kd [6] of about 31 nM.
